Reference: patent US20100260668A1 (published 2010)

What follows are binders tested against T1, VEGF (UniProt P15692-4 27-191) (assay: SPR (Biacore), DVD-Ig captured, VEGF in solution).
T1 construct: Bought reagent; also called vascular endothelial growth factor
T1 sequence (P15692 other isoform, or with tags, fused parts or gaps limits assumed): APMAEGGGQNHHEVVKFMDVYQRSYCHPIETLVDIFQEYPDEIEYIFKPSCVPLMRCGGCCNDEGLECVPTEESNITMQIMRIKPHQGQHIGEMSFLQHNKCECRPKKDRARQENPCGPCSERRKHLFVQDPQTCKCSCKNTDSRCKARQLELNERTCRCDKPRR

Binder | Kd | koff | kon
DVD516 (bispecific antibody, human IgG1, lambda, DVD-Ig; N-term; VD AB071 (VEGF), C-term; VD AB073 (DLL4); HC linker short, LC linker short; also called DVD516H; DVD516L) heavy: not shown light: DIQMTQSPSSLSASVGDRVTITCRASQVIRRSLAWYQQKPGKAPKLLIYAASNLASGVPSRFSGSGSGTDFTLTISSLQPEDFATYYCQQSNTSPLTFGQGTKVEIKRTVAAPQAVVTQESALTTSPGETVTLTCRSSTGAVTTSNYANWVQEKPDHLFTGLIGGTNNRAPGVPARFSGSLIGDKAALTITGAQTEDEAIYFCALWYSNHWVFGGGTKLTVLGQPKAAPSVTLFPPSSEELQANKATLVCLISDFYPGAVTVAWKADSSPVKAGVETTTPSKQSNNKYAASSYLSLTPEQWKSHRSYSCQVTHEGSTVEKTVAPTECS | 781 pM | 0.00028 s⁻¹ | 358000 M⁻¹ s⁻¹
DVD528 (bispecific antibody, human IgG1, lambda, DVD-Ig; N-term; VD AB071 (VEGF), C-term; VD AB073 (DLL4); HC linker long, LC linker short; also called DVD528H; DVD528L) heavy: not shown light: DIQMTQSPSSLSASVGDRVTITCRASQVIRRSLAWYQQKPGKAPKLLIYAASNLASGVPSRFSGSGSGTDFTLTISSLQPEDFATYYCQQSNTSPLTFGQGTKVEIKRTVAAPQAVVTQESALTTSPGETVTLTCRSSTGAVTTSNYANWVQEKPDHLFTGLIGGTNNRAPGVPARFSGSLIGDKAALTITGAQTEDEAIYFCALWYSNHWVFGGGTKLTVLGQPKAAPSVTLFPPSSEELQANKATLVCLISDFYPGAVTVAWKADSSPVKAGVETTTPSKQSNNKYAASSYLSLTPEQWKSHRSYSCQVTHEGSTVEKTVAPTECS | 413 pM | 0.00016 s⁻¹ | 388000 M⁻¹ s⁻¹
DVD452 (bispecific antibody, human IgG1, kappa, L234A L235A, DVD-Ig; N-term; VD AB071 (VEGF), C-term; VD AB069 (DLL4); HC linker long, LC linker long; also called DVD452H; DVD452L) heavy: not shown light: DIQMTQSPSSLSASVGDRVTITCRASQVIRRSLAWYQQKPGKAPKLLIYAASNLASGVPSRFSGSGSGTDFTLTISSLQPEDFATYYCQQSNTSPLTFGQGTKVEIKRTVAAPSVFIFPPDIVMTQSPDSLAVSLGERATISCRASESVDNYGISFMKWFQQKPGQPPKLLIYAASNQGSGVPDRFSGSGSGTDFTLTISSLQAEDVAVYYCQQSKEVPWTFGGGTKVEIKRTVAAPSVFIFPPSDEQLKSGTASVVCLLNNFYPREAKVQWKVDNALQSGNSQESVTEQDSKDSTYSLSSTLTLSKADYEKHKVYACEVTHQGLSSPVTKSFNRGEC | 0.155 pM | 1.61e-08 s⁻¹ | 104000 M⁻¹ s⁻¹
DVD464 (bispecific antibody, human IgG1, kappa, DVD-Ig; N-term; VD AB071 (VEGF), C-term; VD AB069 (DLL4); HC linker short, LC linker long; also called DVD464H; DVD464L) heavy: not shown light: DIQMTQSPSSLSASVGDRVTITCRASQVIRRSLAWYQQKPGKAPKLLIYAASNLASGVPSRFSGSGSGTDFTLTISSLQPEDFATYYCQQSNTSPLTFGQGTKVEIKRTVAAPSVFIFPPDIVMTQSPDSLAVSLGERATISCRASESVDNYGISFMKWFQQKPGQPPKLLIYAASNQGSGVPDRFSGSGSGTDFTLTISSLQAEDVAVYYCQQSKEVPWTFGGGTKVEIKRTVAAPSVFIFPPSDEQLKSGTASVVCLLNNFYPREAKVQWKVDNALQSGNSQESVTEQDSKDSTYSLSSTLTLSKADYEKHKVYACEVTHQGLSSPVTKSFNRGEC | 0.77 pM | 7.22e-08 s⁻¹ | 93700 M⁻¹ s⁻¹
DVD522 (bispecific antibody, human IgG1, kappa, lambda, L234A L235A, DVD-Ig; N-term; VD AB071 (VEGF), C-term; VD AB073 (DLL4); HC linker long, LC linker long; also called DVD522H; DVD522L) heavy: not shown light: DIQMTQSPSSLSASVGDRVTITCRASQVIRRSLAWYQQKPGKAPKLLIYAASNLASGVPSRFSGSGSGTDFTLTISSLQPEDFATYYCQQSNTSPLTFGQGTKVEIKRTVAAPSVFIFPPQAVVTQESALTTSPGETVTLTCRSSTGAVTTSNYANWVQEKPDHLFTGLIGGTNNRAPGVPARFSGSLIGDKAALTITGAQTEDEAIYFCALWYSNHWVFGGGTKLTVLGQPKAAPSVTLFPPSSEELQANKATLVCLISDFYPGAVTVAWKADSSPVKAGVETTTPSKQSNNKYAASSYLSLTPEQWKSHRSYSCQVTHEGSTVEKTVAPTECS | 450 pM | 0.00022 s⁻¹ | 489000 M⁻¹ s⁻¹
DVD534 (bispecific antibody, human IgG1, kappa, lambda, L234A L235A, DVD-Ig; N-term; VD AB071 (VEGF), C-term; VD AB073 (DLL4); HC linker short, LC linker long; also called DVD534H; DVD534L) heavy: not shown light: DIQMTQSPSSLSASVGDRVTITCRASQVIRRSLAWYQQKPGKAPKLLIYAASNLASGVPSRFSGSGSGTDFTLTISSLQPEDFATYYCQQSNTSPLTFGQGTKVEIKRTVAAPSVFIFPPQAVVTQESALTTSPGETVTLTCRSSTGAVTTSNYANWVQEKPDHLFTGLIGGTNNRAPGVPARFSGSLIGDKAALTITGAQTEDEAIYFCALWYSNHWVFGGGTKLTVLGQPKAAPSVTLFPPSSEELQANKATLVCLISDFYPGAVTVAWKADSSPVKAGVETTTPSKQSNNKYAASSYLSLTPEQWKSHRSYSCQVTHEGSTVEKTVAPTECS | 449 pM | 0.000168 s⁻¹ | 374000 M⁻¹ s⁻¹
DVD474 (bispecific antibody, human IgG1, kappa, DVD-Ig; N-term; VD AB071 (VEGF), C-term; VD AB015 (DLL4); HC linker long, LC linker long; also called DVD474H; DVD474L) heavy: not shown light: DIQMTQSPSSLSASVGDRVTITCRASQVIRRSLAWYQQKPGKAPKLLIYAASNLASGVPSRFSGSGSGTDFTLTISSLQPEDFATYYCQQSNTSPLTFGQGTKVEIKRTVAAPSVFIFPPDIQMTQSPSSLSASVGDRVTITCRASQDVSTAVAWYQQKPGKAPKLLIYSASFLYSGVPSRFSGSGSGTDFTLTISSLQPEDFATTYYCQQSYTGTVTFGQGTKVEIKRTVAAPSVFIFPPSDEQLKSGTASVVCLLNNFYPREAKVQWKVDNALQSGNSQESVTEQDSKDSTYSLSSTLTLSKADYEKHKVYACEVTHQGLSSPVTKSFNRGEC | 1.44 pM |  | 
DVD486 (bispecific antibody, human IgG1, kappa, DVD-Ig; N-term; VD AB071 (VEGF), C-term; VD AB015 (DLL4); HC linker short, LC linker long; also called DVD486H; DVD486L) heavy: not shown light: DIQMTQSPSSLSASVGDRVTITCRASQVIRRSLAWYQQKPGKAPKLLIYAASNLASGVPSRFSGSGSGTDFTLTISSLQPEDFATYYCQQSNTSPLTFGQGTKVEIKRTVAAPSVFIFPPDIQMTQSPSSLSASVGDRVTITCRASQDVSTAVAWYQQKPGKAPKLLIYSASFLYSGVPSRFSGSGSGTDFTLTISSLQPEDFATTYYCQQSYTGTVTFGQGTKVEIKRTVAAPSVFIFPPSDEQLKSGTASVVCLLNNFYPREAKVQWKVDNALQSGNSQESVTEQDSKDSTYSLSSTLTLSKADYEKHKVYACEVTHQGLSSPVTKSFNRGEC | 371 pM |  | 
